In patent US20140162285A1, “Methods of Modulating Vesicular Trafficking” (The General Hospital Corporation, priority 2009, published 2014):
Peptide text beside a SMILES is read from it. * marks the point of attachment. Biotin = O=C1N[C@H]2[C@H](CS[C@H]2CCCCC(=O)*)N1

B1: a2N: recombinant N-terminal cytosolic tail, amino acid residues 1-402 of mouse V-ATPase a2-subunit (protein)
chain: MGSLFRSESMCLAQLFLQSGTAYECLSALGEKGLVQFRDLNQNVSSFQRKFVGEVKRCEELERILVYLVQEITRADIPLPEGEASPPAPPLKHVLEMQEQLQKLEVELREVTKNKEKLRKNLLELVEYTHMLRVTKTFLKRNVEFEPTYEEFPALENDSLLDYSCMQRLGAKLGFVSGLIQQGRVEAFERMLWRACKGYTIVTYAELDECLEDPETGEVIKWYVFLISFWGEQIGHKVKKICDCYHCHIYPYPNTAEERREIQEGLNTRIQDLYTVLHKTEDYLRQVLCKAAESVCSRVVQVRKMKAIYHMLNMCSFDVTNKCLIAEVWCPEVDLPGLRRALEEGSRESGATIPSFMNTIPTKETPPTLIRTNKFTEGFQNIVDAYGVGSYREVNPALFTII
modifications: left off: small tags and cut ends
notes: recombinant N-terminal cytosolic tail, amino acid residues 1-402 of mouse V-ATPase a2-subunit

Assays:
Sec7-domain of ARNO = target: T1, Sec7-domain of ARNO (Homo sapiens, UniProt Q99418); assay: surface plasmon resonance (BIAcore T100) kinetic analysis a2N-01 peptide/Sec7-domain; assay type: binding; details: ΔGbind=RTlnKD
T1 construct: iii) 61-252aa, Sec7 domain; GST (N, cleaved yes); made in house; host or cells: E. coli BL21(DE3)
T1 sequence (Q99418 61-252): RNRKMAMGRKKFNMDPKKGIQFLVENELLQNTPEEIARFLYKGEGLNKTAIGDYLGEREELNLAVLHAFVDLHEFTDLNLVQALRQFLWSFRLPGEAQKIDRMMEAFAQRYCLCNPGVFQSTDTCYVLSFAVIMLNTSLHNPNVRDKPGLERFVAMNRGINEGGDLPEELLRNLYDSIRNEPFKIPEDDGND
From the text: (§1) 6A, Kinetic analysis and estimation of a dissociation constant (KD) for interaction between full-length a2N(wt) and ARNO(wt) proteins. Sensorgrams for the binding of recombinant a2N-6His immobilized as ligand on the sensor chip, with various concentrations of 6His-ARNO as analyte are shown as follows. The responses on the sensorgram are designated in resonance units (RU). […] 6B, Kinetic analysis and estimation of KD for interaction between a2N-01 peptide and Sec7-domain of ARNO. Sensorgrams for the binding of a2N-01 peptide immobilized as ligand on the sensor chip, with various concentrations of Sec7-domain as analyte are shown as follows. The responses on the sensorgram are designated in resonance units (RU).
All reagents, including buffers, sensor chips and the amine coupling kit, were obtained from GE Healthcare. […] Dissociation of the complexes was monitored for 10 min, and then the regeneration of the sensor surfaces was performed using 0.05% SDS with 1-min injection in the running buffer at a 20 μl/min flow rate. […] The dissociation constant (KD) was determined from the kon/koff values. To estimate affinity of interaction the corresponding free energy of binding ΔGbind=RTlnKD was calculated as previously described (Marles et al., Mol Cell 14 (2004) 813-823). […]

ARNO(wt) = target: T2, ARNO(wt) (Homo sapiens, UniProt Q99418); assay: surface plasmon resonance (BIAcore T100) kinetic analysis a2N(wt)/ARNO(wt); assay type: binding
T2 construct: i) 1-400aa, full length ARNO(wt); GST (N); made in house; host or cells: E. coli BL21(DE3)
T2 sequence (Q99418 1-400): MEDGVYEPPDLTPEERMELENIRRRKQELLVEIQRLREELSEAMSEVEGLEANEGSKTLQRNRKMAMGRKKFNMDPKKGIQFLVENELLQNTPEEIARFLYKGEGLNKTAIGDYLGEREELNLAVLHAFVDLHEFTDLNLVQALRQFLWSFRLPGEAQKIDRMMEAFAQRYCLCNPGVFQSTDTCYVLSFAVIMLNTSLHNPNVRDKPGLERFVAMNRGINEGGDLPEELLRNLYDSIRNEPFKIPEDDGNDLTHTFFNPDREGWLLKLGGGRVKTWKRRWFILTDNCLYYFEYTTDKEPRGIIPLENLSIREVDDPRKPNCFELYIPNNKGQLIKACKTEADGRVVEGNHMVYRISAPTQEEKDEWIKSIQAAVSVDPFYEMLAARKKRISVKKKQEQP
From the text: as §1
All reagents, including buffers, sensor chips and the amine coupling kit, were obtained from GE Healthcare. For kinetic analysis of the binding of ARNO(wt) with a2N(wt), purified 6His-a2N (5 μg/ml) in 10 mM sodium acetate (pH 4.0) was immobilized at 80 response units (RU) on a CM4 sensor chip using an amine coupling kit according to the manufacturer's instructions. The same kit was used to perform blank immobilization to create a reference surface on the same chip. Samples of purified GST-ARNO(wt) at concentrations ranging from 0.25-4 μM were injected for 6 min over active and reference surfaces at a flow rate of 30 μl/min in NBS-EP, 1 mM DTT running buffer (10 mM Hepes, pH 7.4, 150 mM NaCl, 3 mM EDTA, 0.05% Surfactant P20, 1 mM DTT). For kinetic analysis of the binding of the ARNO Sec7-domain with a2N-01 peptide, neutravidin (10 μg/ml) in 10 mM sodium acetate (pH 5.0) was immobilized at about 1200 RU on two surfaces of a CM4 sensor chip using an amine coupling kit. Following that, biotinylated a2N-01 peptide (50 RU) and amine-PEG3-biotin (25 RU) were irreversibly captured by neutravidin to create active and a reference surfaces, respectively. Purified Sec7-6His recombinant protein was injected for 3.5 min over active and reference surfaces at concentrations ranging from 0.05-1 μM and a flow rate of 100 μl/min in NBS-EP, 1 mM DTT running buffer. Dissociation of the complexes was monitored for 10 min, and then the regeneration of the sensor surfaces was performed using 0.05% SDS with 1-min injection in the running buffer at a 20 μl/min flow rate. […] The dissociation constant (KD) was determined from the kon/koff values. To estimate affinity of interaction the corresponding free energy of binding ΔGbind=RTlnKD was calculated as previously described (Marles et al., Mol Cell 14 (2004) 813-823).
Specific concentration-dependent responses were obtained for both interactions. […] Calculated free energies for a2N(wt)/ARNO(wt) and a2N-01/Sec7 binding are −8.86 kcal mol^−1 and −8.81 kcal mol^−1, respectively (Marles et al., Mol Cell 14 (2004) 813-823). […]

[1] = a2N immobilized, ARNO as analyte, 25° C.

Molecule | calculated free energy of binding (Sec7-domain of ARNO) [kcal/mol] | Kd (ARNO(wt); a2N immobilized on sensor chip, ARNO as analyte, 25° C., bivalent analyte isotherm, read-out: dissociation constant KD) [nM] | association rate constant (kon) (ARNO(wt); [1]) | dissociation rate constant (koff) (ARNO(wt); [1]) | calculated free energy of binding (ARNO(wt); ΔGbind=RTlnKD) [kcal/mol]
CSCC[C@H](NC(=O)CCCC[C@@H]1SC[C@@H]2NC(=O)N[C@@H]21)C(=O)NCC(=O)N[C@@H](CO)C(=O)N[C@@H](CC(C)C)C(=O)N[C@@H](Cc1ccccc1)C(=O)N[C@@H](CCCNC(=N)N)C(=O)N[C@@H](CO)C(=O)N[C@@H](CCC(=O)O)C(=O)N[C@@H](CO)C(=O)N[C@@H](CCSC)C(=O)N[C@@H](CS)C(=O)N[C@@H](CC(C)C)C(=O)N[C@@H](C)C(=O)N[C@@H](CCC(N)=O)C(=O)N[C@@H](CC(C)C)C(=O)N[C@@H](Cc1ccccc1)C(=O)N[C@@H](CC(C)C)C(=O)N[C@@H](CS)C(=O)O [a2N-01, Bio-MGSLFRSE SMCLAQLFL-Cys] (Biotin-MGSLFRSESMCLAQLFLC-OH; N-terminus and C-terminus assumed) | -8.81 |  |  |  | 
B1 |  | 313 | 4.77×10^3 M^−1S^−1 | 14.95×10^−4 S^−1 | -8.86
